The values below come from article PMC2658612 (Cell host & microbe, 2008).

This experiment concerns the target T1, SifA (1–330), as in the calorimetry and the crystal (S. typhimurium, UniProt Q56061 1-330).
T1 sequence: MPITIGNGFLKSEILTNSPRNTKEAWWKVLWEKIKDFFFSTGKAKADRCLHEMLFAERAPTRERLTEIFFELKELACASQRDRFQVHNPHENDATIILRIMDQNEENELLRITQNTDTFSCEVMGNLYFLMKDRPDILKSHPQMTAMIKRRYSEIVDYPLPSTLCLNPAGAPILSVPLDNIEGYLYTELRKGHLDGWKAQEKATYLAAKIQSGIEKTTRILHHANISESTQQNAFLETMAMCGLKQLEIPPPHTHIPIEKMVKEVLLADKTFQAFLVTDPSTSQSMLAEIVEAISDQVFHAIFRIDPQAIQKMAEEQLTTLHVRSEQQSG
Nature of the experiment: ITC. In general terms: ITC needs no label: the signal is the heat of the interaction.

B1: PH domain (PHD) of SKIP (774–883), as in the calorimetry and the crystal (domain or fragment, UniProt Q8IWE5 774-883, looked up)
chain: KEGMLHYKAGTSYLGKEHWKTCFVVLSNGILYQYPDRTDVIPLLSVNMGGEQCGGCRRANTTDRPHAFQVILSDRPCLELSAESEAEMAEWMQHLCQAVSKGVIPQGVAP
For B1, the Kd is 2.58 µM.

By Kd is commonly meant the concentration at which binding is half-saturated. Low values mean higher affinity, high ones lower affinity.
